# In US20160177392A1:
# Molecular target: soybean alpha-SNAP from the Rhg1 locus, full length, with C-terminal six-histidine tag (soybean (Glycine max))
# Assay: gel filtration (Superdex 75); HgSLP-1 alone eluted at fraction 23, albumin standard (67 kDa) at fraction 12, chymotrypsinogen A (25 kDa) at fraction 30
substance,measurement,value
"Heterodera glycines SNARE-like protein 1 (HgSLP-1), full length, expressed in E. coli",elution fraction of HgSLP-1 in gel filtration,15
